One may read the Kd as the constant that tells how readily two partners part at equilibrium.

This is an account of results in US20140256640A1 (PAION DEUTSCHLAND, published 2014).

The test concerns the target human thrombin (human, UniProt P00734 328-622). In words: equilibrium titration of thrombin (20 nM) with thrombomodulin in solution, read by the change in fluorescence of the thrombin inhibitor DAPA, fitted by nonlinear regression. As for the experimental part: A solution containing thrombin (20 nM), thrombomodulin (1.54 μM), and DAPA (20 nM, dansylarginine N-3-(ethyl-1,5-pentanediyl)amide, a fluorescent, reversible thrombin inhibitor) in 0.02 M Tris-HCl, 0.15 M NaCl, 5.0 mM CaCl₂, 0.01% Tween 80, pH 7.4, was added in small successive aliquots to an otherwise identical solution that lacked thrombomodulin. The additions were performed in a cuvette fitted with a magnetic stirrer in the sample compartment of a Perkin-Elmer model LS50B spectrofluorimeter. Intensity values were continuously recorded with excitation and emission wavelengths of 280 and 545 nm, respectively. A 430-nm cut-off filter was used in the emission beam. The intensity of fluorescence, I, was assumed to be the sum of intensities from thrombin-DAPA (T·D) and thrombin-thrombomodulin-DAPA (T·TM·D). That is, I=i₁·[T·D]+i₂·[T·TM·D], where i₁ and i₂ are the coefficients of fluorescence for T·D and T·TM·D (since excitation was at 280 nm, the emission from free DAPA was negligible).
Therefore, with KTM defined as the dissociation constant for the thrombin-thrombomodulin interaction, [T][TM]=KTM[T·TM]; [T·D][TM]=KTM[T·TM·D]; and ([T]+[T·D])·[TM]=KTM([T·TM]+[T·TM·D]). The last expression is identical to f·[TM]=KTM·b. Since f=1−b and [TM]=[TM]₀−b[T]₀, where [TM]₀ is the total thrombomodulin concentration, the following equation is obtained: (1−b)([TM]₀−b·[T]₀)=KTM·b. […]

B1: Solulin (recombinant human soluble thrombomodulin) (receptor)
chain: EPQPGGSQCVEHDCFALYPGPATFLNASQICDGLRGHLMTVRSSVAADVISLLLNGDGGVGRRRLWIGLQLPPGCGDPKRLGPLRGFQWVTGDNNTSYSRWARLDLNGAPLCGPLCVAVSAAEATVPSEPIWEEQQCEVKADGFLCEFHFPATCRPLAVEPGAAAAAVSITYGTPFAARGADFQALPVGSSAAVAPLGLQLMCTAPPGAVQGHWAREAPGAWDCSVENGGCEHACNAIPGAPRCQCPAGAALQADGRSCTASATQSCNDLCEHFCVPNPDQPGSYSCMCETGYRLAADQHRCEDVDDCILEPSPCPQRCVNTQGGFECHCYPNYDLVDGECVEPVDPCFRANCEYQCQPLNQTSYLCVCAEGFAPIPHEPHRCQLFCNQTACPADCDPNTQASCECPEGYILDDGFICTDIDECENGGFCSGVCHNLPGTFECICGPDSALAGQIGTDCDSGKVDGGDSGAGEPPPSPTPGSTLTPP
notes: Obtained from PAION Deutschland GmbH; also called sTM; recombinant soluble thrombomodulin
B1 showed a Kd of 23 nM.
